Results: patent US20220048982A1 (Eli Lilly, published 2022)
Like-named read-outs stand apart in the source and are kept apart here.

T1: biotinylated human α-synuclein peptide 120-140 (human, biotinylated (site not stated))
T1 construct: also called α-synuclein fragment 120-140
T1 peptide: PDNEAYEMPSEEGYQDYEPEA


What was measured:
[1] = biological target: T1, biotinylated human α-synuclein peptide …; experiment: ELISA on biotinylated human alpha-synuclein peptide 120-140, detection with goat anti-human kappa-AP, OD560
Protocol: (§1) An ELISA plate is coated with recombinant human α-synuclein fibril at 1 μg/ml in PBS overnight at 4° C. The next day, the plate is incubated with 1% casein for 1 hour at room temperature to block non-specific binding sites on the plate. […] After incubation, the plate is washed three times with 0.1% PBST to remove un-bound antibody and incubated with a detection agent (1:1000 diluted goat-anti-human Kappa-AP) in 0.1% PBST for 1 hour at room temperature. The plate is washed three times with 0.1% PBST to remove un-bound detection agent and incubated with a substrate for 15 minutes at room temperature. The OD is then read in an ELISA plate reader at 560 nm. The binding curve is obtained based on the antibody concentration and OD560 readout.
(§2) Binding full-length (1-140) α-synuclein is also determined. The procedure is essentially as described above for α-synuclein fibril binding.

mIgG1-hAsyn100-140 [2] = biological target: T2, mIgG1-hAsyn100-140 (mouse; human, UniProt P37840 100-140); experiment: ratio of Kinexa KD for monomeric human α-synuclein to MSD-SET KD for dimeric α-synuclein, 37 C
T2 construct: C-terminal fragment of human α-synuclein fused onto the C-terminal end of a mouse Fc; also called dimeric human alpha-synuclein; dimeric α-synuclein; not shown: mouse IgG1 Fc fragment; short unstructured linker element

mIgG1-hAsyn100-140 [3] = biological target: T2, mIgG1-hAsyn100-140; experiment: MSD-SET solution equilibrium at 37 C
Protocol: (§3) During this incubation time, an MSD Sector plate is coated with monomeric human alpha-synuclein and blocked with a blocking reagent (i.e. BSA, casein). Following steady state equilibrium incubation times, individual antibody/mIgG1-hAsyn 100-140 mixtures are added simultaneously to the plate and allowed to incubate for 10 minutes to capture free antibody and minimize exchange with antibody in complex with mIgG1-hAsyn100-140. Following this short incubation, plates are subsequently washed and incubated with a biotinylated anti-human secondary antibody, followed by detection using streptavidin-S-tag on the MSD instrument. The resultant MSD signal (proportional to % free antibody) is then plotted as a function of mIgG1-hAsyn100-140 concentration and globally fit to a four parameter fit to obtain IC₅₀ (KD). Reported 95% confidence intervals represent the fitting of N=3 independent runs each with technical duplicates. The avidity-factor is the ratiometric difference between monomer affinity and dimer affinity and represents the selectivity in binding between monomeric and dimeric α-synuclein for antibody.

[4] = biological target: T3, monomeric human α-synuclein (human, UniProt P37840 1-140); experiment: Kinexa at 37 C, solution equilibrium
Protocol: (§4) These samples are incubated for 24 to 48 hours at 37 C to allow for steady state equilibrium to be achieved. During this time, sepharose beads are conjugated with monomeric human alpha-synuclein and blocked with a suitable non-specific binding protein (typically BSA or casein). Once steady state is achieved, a small capillary is packed with coated beads and samples of each fixed antibody/alpha-synuclein monomer are injected over the column. […] This step is repeated for each concentration of alpha-synuclein monomer and resultant fluorescent signal (proportional to percent free antibody) and then plotted as a function of fluorescent signal versus monomeric α-synuclein concentration and globally fit to a 1:1 binding model to obtain KD. Independent runs (n=3) run with technical duplicates (95% confidence intervals) are reported.

[5] = biological target: monomeric human alpha-synuclein fragment 1-121 (human, UniProt P37840 1-121); experiment: Kinexa at 37 C, solution equilibrium
Protocol: as §4

[6] = biological target: monomeric human alpha-synuclein fragment 1-115 (human, UniProt P37840 1-115); experiment: Kinexa at 37 C, solution equilibrium
Protocol: as §4

[7] = biological target: truncated human α-synuclein fragment 1-120 (human, UniProt P37840 1-120); experiment: ELISA on plate-coated truncated human alpha-synuclein fragment 1-120, detection with goat anti-human kappa-AP, OD560
Protocol: as §1, §2

[8] = biological target: T3, monomeric human α-synuclein; experiment: ELISA on plate-coated full-length (1-140) human alpha-synuclein, detection with goat anti-human kappa-AP, OD560
Protocol: as §1, §2

[9] = biological target: pHAb-dye labelled human α-synuclein fibrils (1-140) (human, UniProt P37840 1-140); experiment: cell-based or functional assay
mIgG1-hAsyn100-140 [10] = biological target: T2, mIgG1-hAsyn100-140; experiment: MSD-SET solution equilibrium at 25 C
Protocol: as §3

[11] = biological target: T4, recombinant human α-synuclein fibril (human, UniProt P37840 1-140); experiment: ELISA, plate coated with fibril at 1 µg/ml
Protocol: An Enzyme-Linked Immunosorbent Assay (ELISA) is performed for quantitative determination of antibody affinity to recombinant human α-synuclein fibril.
as §1

[12] = biological target: T4, recombinant human α-synuclein fibril; experiment: cell-based or functional assay
[13] = biological target: monomeric rabbit alpha-synuclein (rabbit); experiment: Kinexa at 37 C, solution equilibrium
Protocol: as §4

[14] = biological target: monomeric rat alpha-synuclein (rat, UniProt P37377 1-140); experiment: Kinexa at 37 C, solution equilibrium
Protocol: as §4

[15] = biological target: T3, monomeric human α-synuclein; experiment: Kinexa at 37 C, solution equilibrium; remark: listed apart in the source
Protocol: as §4

[16] = biological target: monomeric mouse alpha-synuclein (mouse, UniProt O55042 1-140); experiment: Kinexa at 37 C, solution equilibrium
Protocol: as §4

| EC50 (read off the curve) [1] [nM] | avidity factor (monomer KD against dimer KD) (mIgG1-hAsyn100-140 [2]) [fold] | Kd (mIgG1-hAsyn100-140 [3]) [nM] | Kd [4] [nM] | Kd [5] [nM] | Kd [6] [nM] | EC50 (read off the curve) [7] [nM] | EC50 (read off the curve) [8] [nM] | Average IC50, inhibition of fibril internalization into SH-SY5Y cells [9] [mg/L] | IC50 Standard Deviation, inhibition of fibril internalization into SH-SY5Y cells [9] [mg/L] | Kd (mIgG1-hAsyn100-140 [10]) [nM] | EC50 [11] [mg/L] | Average IC50, inhibition of alpha-synuclein aggregation in SHSY-5Y-A53T-myc cells [12] [mg/L] | Kd [13] [nM] | Kd [14] [nM] | Kd [15] [nM] | Kd [16] [nM] | Binder |
| --- | --- | --- | --- | --- | --- | --- | --- | --- | --- | --- | --- | --- | --- | --- | --- | --- | --- |
| ~0.9 | ~20000 | 0.00097 | 19 | 11.8 | 675 | ~0.7 | ~1 | 0.45 | 0.017 | 0.00012 | 0.000193 | 0.41 | 554 | 89 | 19 | 49.7 | Antibody 1 (antibody, human IgG4 S228P, kappa, F234A L235A, V domains shown, about 1% of the N-terminal glutamic acid may be converted to pyroglutamic acid; less than about 1% of the C-terminal glycine may be clipped, IgG4PAA, kappa) VH: EVQLLESGGGLVQPGGSLRLSCAASGFTFSSYAMSWVRQAPGKGLEWVSAISGSGGDTYYADSVKGRFTISRDNSKNTLYLQMNSLRAEDTAVYYCARGYGMDVWGQGTTVTVSS VL: DVVMTQSPLSLPVTLGQPASISCRSSQSLVHSDGNTYLMWFQQRPGQSPRRLIYKVSNRNSGVPDRFSGSGSGTDFTLKISRVEAEDVGVYYCMQGTKQYPTFGQGTKLEIKR |
| ~5 |  |  |  |  |  | ~0.6 | ~0.8 | 0.56 | 0.026 | 0.0032 | 0.000161 | 0.4 | 1020 | 140 | 65.6 | 99.3 | Antibody 2 (antibody, human IgG4 S228P, kappa, F234A L235A, V domains shown, about 1% of the N-terminal glutamic acid may be converted to pyroglutamic acid; less than about 1% of the C-terminal glycine may be clipped, IgG4PAA, kappa) VH: EVQLLESGGGLVQPGGSLRLSCAASGFTFSSYAMSWVRQAPGKGLEWVSAISGSGGDTYYADSVQGRFTISRDNSKNTLYLQMNSLRAEDTAVYYCARGYGMDVWGQGTTVTVSS VL: DVVMTQSPLSLPVTLGQPASISCRSSQDLVHSDGNTYLMWFQQRPGQSPRRLIYKVSDRNSGVPDRFSGSGSGTDFTLKISRVEAEDVGVYYCMQGTKQYPTFGQGTKLEIKR |
